Legend:
Experiment in all cases: cell_activity
[1] = system: 8196zDR D450N D483R,D450N (FokI) (synthetic construct); settings: TI with 8267RD; NHEJ 0.0
[2] = system: 8196zDR D467A D483R,D467A (FokI) (synthetic construct); settings: TI with 8267RD; NHEJ 0.0
[3] = system: 8196zDR D483R (FokI) (synthetic construct); settings: NHEJ with 8267RD; TI 28.4%
[4] = system: 8196zKK (ZFN-R-KK) E490K,I538K (FokI) (synthetic construct); settings: NHEJ with 8267EL; TI 29.4%; K562
[5] = system: 8196zKK D467A E490K,I538K,D467A (FokI) (synthetic construct); settings: TI with 8267EL; NHEJ 0.0
[6] = system: 8267RD R487D (FokI) (synthetic construct); settings: NHEJ with 8196zDR; TI 28.4%

CCR5 endogenous locus (K562)
activity [1]: 1.2% | activity [2]: 0.7% | activity [3]: 36.7% | activity [4]: 54.3% | activity [5]: 1.1% | activity [6]: 36.7%
